Sequences and labels used below:
T1: Abp1 SH3 (ABP1_YEAST), P15891
T1 chain: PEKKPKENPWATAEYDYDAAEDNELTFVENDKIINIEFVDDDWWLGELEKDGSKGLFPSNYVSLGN

This test addresses T1, Abp1 SH3 (ABP1_YEAST), P15891. Nature of the test: SPOT array.
With EKTGNAHPLGFRP [YPR016W-A 66-78], the normalised SPOT signal, Boehringer light units (BLU); mean over the file's lines of this peptide is 124. In the case of EEPEDFLPPPPKP [YLR285W 15-27] it was 108. In the case of EQAPTGLVLEPSKP [YBR284W 656-669] it was 51.6; in that of EGQVLYDPEPFKP [YNL086W 59-71], 128.

The molecule EKARNVEYKKPQKP [YCL061C 306-319] had a normalised SPOT signal, Boehringer light units (BLU); mean over the file's lines of this peptide of 80.9.

The molecule EFRQEIIDRVPLRP [YMR027W 61-74] had a normalised SPOT signal, Boehringer light units (BLU); mean over the file's lines of this peptide of 118. Turning to EEFDSYSRSRPTRP [YNL165W 290-303], the normalised SPOT signal, Boehringer light units (BLU); mean over the file's lines of this peptide was 254. With EHAVANGPSHRRP [YBL101C 762-774], the normalised SPOT signal, Boehringer light units (BLU); mean over the file's lines of this peptide turned out to be 97.9. In the case of EFTDMEIPDSVKP [YKL010C 660-672] it was 72.6; in that of ENPIDKLDGTPKRP [YIL063C 22-35], 21.5; in that of EQKLPTALLSPLRP [YCL051W 196-209], 126. In the case of EHMLYIIPPQIKP [YIL103W 218-230] it was 96.5; in that of ELQKRVGPDNFKP [YKL155C 149-161], 130. In the case of EPVTKERPHFNKP [YER161C 148-160] it was 534; in that of EFRKSDEPVSVKP [YBR237W 77-89], 69.6. As for ENEFQVIPIRFKP [YER085C 144-156], the normalised SPOT signal, Boehringer light units (BLU); mean over the file's lines of this peptide stood at 127. As for ELKERDFDQAPLKP [YCR088W 207-220], the figure is 89.2; as for ELNLKLLNLFPSKP [YGR134W 1043-1056], 164.

For EIQNGKRPVLLKP [YIR007W 368-380], the normalised SPOT signal, Boehringer light units (BLU); mean over the file's lines of this peptide was 248. As for EQIVLGQPKTNRP [YDR062W 281-293], the figure is 87.7. Regarding EKGQALVVFSPHRP [YLR285W 193-206], the normalised SPOT signal, Boehringer light units (BLU); mean over the file's lines of this peptide was determined as 182. On to ENYLSTRPSVLKP [YOR217W 594-606], for which the normalised SPOT signal, Boehringer light units (BLU); mean over the file's lines of this peptide was determined as 84.9. For the molecule EPASVYESNGPNKP [YMR086W 699-712], the normalised SPOT signal, Boehringer light units (BLU); mean over the file's lines of this peptide stood at 18.6.

EEEEGEVLLPPSRP [YLR079W 130-143] showed a normalised SPOT signal, Boehringer light units (BLU); mean over the file's lines of this peptide of 81.5. In the case of EIELLVDSKDPNKP [YLL040C 1996-2009] it was 126; in that of EGSQSVPIEIPKKP [YLR081W 51-64], 132; in that of EKASRFRPTIDRP [YJL196C 11-23], 910.

As for EQEEFTSPYFGRP [YIL031W 818-830], the normalised SPOT signal, Boehringer light units (BLU); mean over the file's lines of this peptide was found to be 67.4.

Molecule EKEKEKSPEISKP [YNR051C 181-193] gave a normalised SPOT signal, Boehringer light units (BLU); mean over the file's lines of this peptide of 67.3. In the case of EMYQDKLPPNVKP [YHR190W 379-391] it was 143.

Take EESKARSPGIAKP [YDR227W 268-280]: the normalised SPOT signal, Boehringer light units (BLU); mean over the file's lines of this peptide amounted to 404. As for ELRGLDDPTIVKP [YGR099W 548-560], the figure is 152; as for EEKAKAVNELPTKP [YGR037C 7-20], 188; as for ENEPTLNPFTNKP [YJR122W 411-423], 138. As for EPPQDQAPSLPPKP [YCL008C 154-167], the figure is 156; as for EKVYRTEEKAPIRP [YDL203C 183-196], 38.6. Take EGGAYIIPNFGKP [YPR184W 920-932]: the normalised SPOT signal, Boehringer light units (BLU); mean over the file's lines of this peptide came out at 4.8.

Molecule EKHELIIPTPSKP [YCL027W 384-396] displayed a normalised SPOT signal, Boehringer light units (BLU); mean over the file's lines of this peptide of 140. As for EEEIELPPGVKKP [YFL004W 659-671], the figure is 77.1; as for EPKMQKQTIFPGKP [YHL022C 194-207], 619. In the case of EIERHETPLNIRP [YGR267C 9-21] it was 0.

In turn, EHFDIPPPAIMKP [YOR116C 588-600] registered a normalised SPOT signal, Boehringer light units (BLU); mean over the file's lines of this peptide of 106. In the case of EKFRVNRPIQLRP [YHL038C 520-532] it was 1490. In the case of EGKNEETPQNEKP [YKL144C 179-191] it was 126; in that of EETIVFLQSDPSRP [YDR127W 1000-1013], 50.7; in that of ENRKGEKDAAPAKP [YGL061C 171-184], 87.1. As for ERLQSQPPRPPRP [YGR268C 21-33], the figure is 10400; as for ELFIIIQPPVMKP [YIR007W 413-425], 98.8. In turn, EHSRVKLPHSPKP [YOR208W 421-433] displayed a normalised SPOT signal, Boehringer light units (BLU); mean over the file's lines of this peptide of 395.

For EIFPNSKPLQPKP [YJL010C 631-643], the normalised SPOT signal, Boehringer light units (BLU); mean over the file's lines of this peptide stood at 13.6. In the case of ERLERQFEEVPFRP [YPL027W 171-184] it was 201; in that of ELQNEDWPNESKP [YNL274C 336-348], 24; in that of EEFPEIIPLQQRP [YPL117C 30-42], 145.

For the molecule ENAVKSEQQFPGRP [YOR347C 67-80], the normalised SPOT signal, Boehringer light units (BLU); mean over the file's lines of this peptide stood at 80.3.

For the origin of these results see article PMC314469, “Protein Interaction Networks by Proteome Peptide Scanning” (PLoS Biology, 2004).
